According to patent US20230408517A1 (BIO TECHNE, published 2023):
Where two headings read alike, the source gives them in different places.

What was measured:
[1] = molecular target: T1, recombinant SARS-CoV-2 spike S1 RBD (R319-F541), C-terminal 6-His (SARS-CoV-2, UniProt P0DTC2 319-541); assay: flow cytometry, blocking of binding to hACE-2 cells
[2] = molecular target: T1, recombinant SARS-CoV-2 spike S1 RBD …; assay: as above; remark: listed apart in the source
[3] = molecular target: T2, IN v1 variant RBD (R319-F541 with L452R, E484Q) (SARS-CoV-2, UniProt P0DTC2 319-541); assay: lateral flow assay: blocking of RBD-AuNP capture by ACE2
[4] = molecular target: T3, IN v2 variant RBD (R319-F541 with L452R, T478K) (SARS-CoV-2, UniProt P0DTC2 319-541); assay: as above
[5] = molecular target: T4, L452R RBD (R319-F541 with L452R) (SARS-CoV-2, UniProt P0DTC2 319-541); assay: dipstick, adsorbed RBD spots, Ab 10 µg/mL, GAM-AuNP
[6] = molecular target: T1, recombinant SARS-CoV-2 spike S1 RBD …; assay: lateral flow NC50, RBD-AuNP vs immobilised ACE2
[7] = molecular target: T5, BR P.1 variant RBD (R319-F541 with K417T, E484K, N501Y), C-terminal 6-His (SARS-CoV-2, UniProt P0DTC2 319-541); assay: lateral flow NC50, RBD-AuNP vs immobilised ACE2
[8] = molecular target: T6, UK variant RBD (R319-F541 with N501Y), C-terminal 6-His (SARS-CoV-2, UniProt P0DTC2 319-541); assay: lateral flow NC50, RBD-AuNP vs immobilised ACE2
[9] = molecular target: T7, SA variant RBD (R319-F541 with K417N, E484K, N501Y), C-terminal 6-His (SARS-CoV-2, UniProt P0DTC2 319-541); assay: lateral flow NC50, RBD-AuNP vs immobilised ACE2
[10] = molecular target: T1, recombinant SARS-CoV-2 spike S1 RBD …; assay: lateral flow NC50, RBD-AuNP vs immobilised ACE2; remark: listed apart in the source
[11] = molecular target: T478K RBD (R319-F541 with T478K) (SARS-CoV-2, UniProt P0DTC2 319-541); assay: lateral flow NC50, RBD-AuNP vs immobilised ACE2
[12] = molecular target: T5, BR P.1 variant RBD (R319-F541 with …); assay: lateral flow NC50, RBD-AuNP vs immobilised ACE2; remark: listed apart in the source
[13] = molecular target: T6, UK variant RBD (R319-F541 with N501Y), …; assay: lateral flow NC50, RBD-AuNP vs immobilised ACE2; remark: listed apart in the source
[14] = molecular target: T7, SA variant RBD (R319-F541 with K417N, …); assay: lateral flow NC50, RBD-AuNP vs immobilised ACE2; remark: listed apart in the source
[15] = molecular target: K417E RBD (R319-F541 with K417E) (SARS-CoV-2, UniProt P0DTC2 319-541); assay: lateral flow NC50, RBD-AuNP vs immobilised ACE2
[16] = molecular target: BR P.2 variant RBD (R319-F541 with E484K) (SARS-CoV-2, UniProt P0DTC2 319-541); assay: lateral flow NC50, RBD-AuNP vs immobilised ACE2
[17] = molecular target: T1, recombinant SARS-CoV-2 spike S1 RBD …; assay: sandwich dipstick, detector Ab5-AuNP
[18] = molecular target: T5, BR P.1 variant RBD (R319-F541 with …); assay: sandwich dipstick, detector Ab5-AuNP
[19] = molecular target: T6, UK variant RBD (R319-F541 with N501Y), …; assay: sandwich dipstick, detector Ab5-AuNP
[20] = molecular target: T7, SA variant RBD (R319-F541 with K417N, …); assay: sandwich dipstick, detector Ab5-AuNP
[21] = molecular target: rSARS2-B.1.617.2 S aa16-1211 10+4x aa mut., C-His (SARS-CoV-2, UniProt P0DTC2 16-1211); assay: flow cytometry, blocking of binding to hACE-2 cells
[22] = molecular target: rSARS2 RBD aa319-541, N439K, C-His (SARS-CoV-2, UniProt P0DTC2 319-541); assay: as above
[23] = molecular target: T5, BR P.1 variant RBD (R319-F541 with …); assay: as above
[24] = molecular target: rSARS2-B.1.1.7 S aa16-1211 4x aa mut., C-His (SARS-CoV-2, UniProt P0DTC2 16-1211); assay: as above
[25] = molecular target: rSARS2-B.1.1.7 S aa16-1211 2x aa mut., C-His (SARS-CoV-2, UniProt P0DTC2 16-1211); assay: as above
[26] = molecular target: T3, IN v2 variant RBD (R319-F541 with …); assay: as above
[27] = molecular target: T1, recombinant SARS-CoV-2 spike S1 RBD …; assay: sandwich dipstick, detector Ab4-AuNP
[28] = molecular target: T5, BR P.1 variant RBD (R319-F541 with …); assay: sandwich dipstick, detector Ab4-AuNP
[29] = molecular target: T6, UK variant RBD (R319-F541 with N501Y), …; assay: sandwich dipstick, detector Ab4-AuNP
[30] = molecular target: T7, SA variant RBD (R319-F541 with K417N, …); assay: sandwich dipstick, detector Ab4-AuNP
[31] = molecular target: T4, L452R RBD (R319-F541 with L452R); assay: lateral flow assay: blocking of RBD-AuNP capture by ACE2
[32] = molecular target: T2, IN v1 variant RBD (R319-F541 with …); assay: as above; remark: listed apart in the source
[33] = molecular target: T3, IN v2 variant RBD (R319-F541 with …); assay: as above; remark: listed apart in the source

Row | Binder | percent blocking [1] [%] | percent blocking [2] [%] | IC50 [6] [µg/mL] | IC50 [7] [µg/mL] | IC50 [8] [µg/mL] | IC50 [9] [µg/mL] | IC50 [10] [µg/mL] | IC50 [11] [µg/mL] | IC50 [12] [µg/mL] | IC50 [13] [µg/mL] | IC50 [14] [µg/mL] | IC50 [15] [µg/mL] | IC50 [16] [µg/mL] | detection sensitivity [17] [µg/mL] | detection sensitivity [18] [µg/mL] | detection sensitivity [19] [µg/mL] | detection sensitivity [20] [µg/mL] | percent blocking [21] [%] | percent blocking [22] [%] | percent blocking [23] [%] | further results
1 | 1035224 (antibody, V domains shown) VH: EVQLQQSGAEFVRPGALVKLSCKASGFNIKDDYMHWVKQRPEQGLEWIGWIDPENGNSIYDPKFQGKASITADTSSNTAYLQLSSLTSEDTAVYYCARGEYFGSGSFAYWGQGTLVTVSA VL: QIVLTQSPAIMSASPGEKVTISCSASSSVSYMYWYQQKPGSSPKPWIYRTSNLASGVPARFSGSGSGTSYSLTISSMEAEDAATYYCQQYHSYPYMYTFGGGTKLEIK | 99.1 | 99.1 | 0.66 | 1.11 | 2.72 | 1.14 | 0.66 | 0.76 | 1.11 | 2.72 | 1.14 | 0.38 | 0.54 | 0.001 | 0.001 | 0.001 | 0.001 | 0 | 96.1 | 88 | binding result [3]: no binding (tested: 10 µg/mL); binding result [4]: no binding (tested: 10 µg/mL); binding result [5]: no binding (tested: 10 µg/mL); percent blocking [24]: 74.1%; percent blocking [25]: 33.9%; percent blocking [26]: 0%; detection sensitivity [27]: 0.01 µg/mL; detection sensitivity [28]: 0.01 µg/mL; detection sensitivity [29]: 0.01 µg/mL; detection sensitivity [30]: 0.01 µg/mL
2 | 1035753 (antibody, V domains shown) VH: EVQLQQSGAELVRPGALVKLSCKASGFNIKDYYMHWVKQRPEQGLEWIGWIDPENGNTIYDPKFLGKASITADTSSNTAYLQLSSLTSEDTAVYYCARWYYYAMDSWGQGTSVTVSS VL: DIQMTQTTSSLSASLGDRVTISCSASQGISNYLNWYQQKPDGTVKLLIYYTSSLHSGVPSRFSGSGSGTDYSLTISNLEPEDIATYYCQQYSKLPFTFGGGTNLEMK | 94.7 | 94.7 | 1.66 | 2.21 | 1.51 | 3.19 | 1.66 | 2.29 | 2.21 | 1.51 | 3.19 | 0.89 | 3.22 | 0.001 | 0.001 | 0.001 | 0.001 | 0 | 96.2 | 90.4 | binding result [31]: no binding (tested: 10 µg/mL); binding result [32]: no binding (tested: 10 µg/mL); binding result [33]: no binding (tested: 10 µg/mL); percent blocking [24]: 81.2%; percent blocking [25]: 93.6%; percent blocking [26]: 0%; detection sensitivity [27]: 0.01 µg/mL; detection sensitivity [28]: 0.01 µg/mL; detection sensitivity [29]: 0.01 µg/mL; detection sensitivity [30]: 0.01 µg/mL
